Measured values as given in publication PMC11574045, “A cofactor-induced repressive type of transcription factor condensation can be induced by synthetic peptides to suppress tumorigenesis” (The EMBO Journal, 2024).

B1: ZNF41 (protein, UniProt P51814 1-821, looked up)
Zinc finger protein 41: MAANGDSPPWSPALAAEGRGSSCEVRRERTPEARIHSVKRYPDLSPGPKGRSSADHAALNSIVSLQASVSFEDVTVDFSKEEWQHLDPAQRRLYWDVTLENYSHLLSVGYQIPKSEAAFKLEQGEGPWMLEGEAPHQSCSGEAIGKMQQQGIPGGIFFHCERFDQPIGEDSLCSILEELWQDNDQLEQRQENQNNLLSHVKVLIKERGYEHKNIEKIIHVTTKLVPSIKRLHNCDTILKHTLNSHNHNRNSATKNLGKIFGNGNNFPHSPSSTKNENAKTGANSCEHDHYEKHLSHKQAPTHHQKIHPEEKLYVCTECVMGFTQKSHLFEHQRIHAGEKSRECDKSNKVFPQKPQVDVHPSVYTGEKPYLCTQCGKVFTLKSNLITHQKIHTGQKPYKCSECGKAFFQRSDLFRHLRIHTGEKPYECSECGKGFSQNSDLSIHQKTHTGEKHYECNECGKAFTRKSALRMHQRIHTGEKPYVCADCGKAFIQKSHFNTHQRIHTGEKPYECSDCGKSFTKKSQLHVHQRIHTGEKPYICTECGKVFTHRTNLTTHQKTHTGEKPYMCAECGKAFTDQSNLIKHQKTHTGEKPYKCNGCGKAFIWKSRLKIHQKSHIGERHYECKDCGKAFIQKSTLSVHQRIHTGEKPYVCPECGKAFIQKSHFIAHHRIHTGEKPYECSDCGKCFTKKSQLRVHQKIHTGEKPNICAECGKAFTDRSNLITHQKIHTREKPYECGDCGKTFTWKSRLNIHQKSHTGERHYECSKCGKAFIQKATLSMHQIIHTGKKPYACTECQKAFTDRSNLIKHQKMHSGEKRYKASD
B2: ZNF165 (protein, UniProt P49910 1-485, looked up)
Zinc finger protein 165: MATEPKKAAAQNSPEDEGLLIVKIEEEEFIHGQDTCLQRSELLKQELCRQLFRQFCYQDSPGPREALSRLRELCCQWLKPEIHTKEQILELLVLEQFLTILPGDLQAWVHEHYPESGEEAVTILEDLERGTDEAVLQVQAHEHGQEIFQKKVSPPGPALNVKLQPVETKAHFDSSEPQLLWDCDNESENSRSMPKLEIFEKIESQRIISGRISGYISEASGESQDICKSAGRVKRQWEKESGESQRLSSAQDEGFGKILTHKNTVRGEIISHDGCERRLNLNSNEFTHQKSCKHGTCDQSFKWNSDFINHQIIYAGEKNHQYGKSFKSPKLAKHAAVFSGDKTHQCNECGKAFRHSSKLARHQRIHTGERCYECNECGKSFAESSDLTRHRRIHTGERPFGCKECGRAFNLNSHLIRHQRIHTREKPYECSECGKTFRVSSHLIRHFRIHTGEKPYECSECGRAFSQSSNLSQHQRIHMRENLLM
B3: ZNF174 (protein, UniProt Q15697 1-407, looked up)
Zinc finger protein 174: MAAKMEITLSSNTEASSKQERHIIAKLEEKRGPPLQKNCPDPELCRQSFRRFCYQEVSGPQEALSQLRQLCRQWLQPELHTKEQILELLVMEQFLTILPPEIQARVRHRCPMSSKEIVTLVEDFHRASKKPKQWVAVCMQGQKVLLEKTGSQLGEQELPDFQPQTPRRDLRESSPAEPSQAGAYDRLSPHHWEKSPLLQEPTPKLAGTEAPRMRSDNKENPQQEGAKGAKPCAVSAGRSKGNGLQNPEPRGANMSEPRLSRRQVSSPNAQKPFAHYQRHCRVEYISSPLKSHPLRELKKSKGGKRSLSNRLQHLGHQPTRSAKKPYKCDDCGKSFTWNSELKRHKRVHTGERPYTCGECGNCFGRQSTLKLHQRIHTGEKPYQCGQCGKSFRQSSNLHQHHRLHHGD
B4: CBX2 (protein, UniProt Q14781 1-532, looked up)
Chromobox protein homolog 2: MEELSSVGEQVFAAECILSKRLRKGKLEYLVKWRGWSSKHNSWEPEENILDPRLLLAFQKKEHEKEVQNRKRGKRPRGRPRKLTAMSSCSRRSKLKEPDAPSKSKSSSSSSSSTSSSSSSDEEDDSDLDAKRGPRGRETHPVPQKKAQILVAKPELKDPIRKKRGRKPLPPEQKATRRPVSLAKVLKTARKDLGAPASKLPPPLSAPVAGLAALKAHAKEACGGPSAMATPENLASLMKGMASSPGRGGISWQSSIVHYMNRMTQSQAQAASRLALKAQATNKCGLGLDLKVRTQKGELGMSPPGSKIPKAPSGGAVEQKVGNTGGPPHTHGASRVPAGCPGPQPAPTQELSLQVLDLQSVKNGMPGVGLLARHATATKGVPATNPAPGKGTGSGLIGASGATMPTDTSKSEKLASRAVAPPTPASKRDCVKGSATPSGQESRTAPGEARKAATLPEMSAGEESSSSDSDPDSASPPSTGQNPSVSVQTSQDWKPTRSLIEHVFVTDVTANLITVTVKESPTSVGFFNLRHY
B5: CARF (protein, UniProt Q9NXV6 2-580, looked up)
CDKN2A-interacting protein: AQEVSEYLSQNPRVAAWVEALRCDGETDKHWRHRRDFLLRNAGDLAPAGGAASASTDEAADAESGTRNRQLQQLISFSMAWANHVFLGCRYPQKVMDKILSMAEGIKVTDAPTYTTRDELVAKVKKRGISSSNEGVEEPSKKRVIEGKNSSAVEQDHAKTSAKTERASAQQENSSTCIGSAIKSESGNSARSSGISSQNSSTSDGDRSVSSQSSSSVSSQVTTAGSGKASEAEAPDKHGSASFVSLLKSSVNSHMTQSTDSRQQSGSPKKSALEGSSASASQSSSEIEVPLLGSSGSSEVELPLLSSKPSSETASSGLTSKTSSEASVSSSVAKNSSSSGTSLLTPKSSSSTNTSLLTSKSTSQVAASLLASKSSSQTSGSLVSKSTSLASVSQLASKSSSQTSTSQLPSKSTSQSSESSVKFSCKLTNEDVKQKQPFFNRLYKTVAWKLVAVGGFSPNVNHGELLNAAIEALKATLDVFFVPLKELADLPQNKSSQESIVCELRCKSVYLGTGCGKSKENAKAVASREALKLFLKKKVVVKICKRKYRGSEIEDLVLLDEESRPVNLPPALKHPQELL
B6: CARHSP1 (protein, UniProt Q9Y2V2 2-147, looked up)
Calcium-regulated heat-stable …: SSEPPPPPQPPTHQASVGLLDTPRSRERSPSPLRGNVVPSPLPTRRTRTFSATVRASQGPVYKGVCKCFCRSKGHGFITPADGGPDIFLHISDVEGEYVPVEGDEVTYKMCSIPPKNEKLQAVEVVITHLAPGTKHETWSGHVISS
B7: ZNF19 (protein, UniProt P17023 1-458, looked up)
Zinc finger protein 19: MAAMPLKAQYQEMVTFEDVAVHFTKTEWTGLSPAQRALYRSVMLENFGNLTALGYPVPKPALISLLERGDMAWGLEAQDDPPAERTKNVCKDVETNIDSESTLIQGISEERDGMMSHGQLKSVPQRTDFPETRNVEKHQDIPTVKNIQGKVPRIPCARKPFICEECGKSFSYFSYYARHQRIHTGEKPFECSECGKAFNGNSSLIRHQRIHTGERPYQCEECGRAFNDNANLIRHQRIHSGDRPYYCTECGNSFTSSSEFVIHQRIHTGEKPYECNECGKAFVGNSPLLRHQKIHTGEKPYECNECGKSFGRTSHLSQHQRIHTGEKPYSCKVCGQAFNFHTKLTRHQRIHSEEKPFDCVDCGKAFSAQEQLKRHLRIHTQESSYVCDECGKALTSKRNLHQHQRIHTGEKPYECSKYEKAFGTSSQLGHLEHVYSGEKPVLDICRFGLPEFFTPFYW
B8: CCNC (protein, UniProt P24863 1-283, looked up)
Cyclin-C: MAGNFWQSSHYLQWILDKQDLLKERQKDLKFLSEEEYWKLQIFFTNVIQALGEHLKLRQQVIATATVYFKRFYARYSLKSIDPVLMAPTCVFLASKVEEFGVVSNTRLIAAATSVLKTRFSYAFPKEFPYRMNHILECEFYLLELMDCCLIVYHPYRPLLQYVQDMGQEDMLLPLAWRIVNDTYRTDLCLLYPPFMIALACLHVACVVQQKDARQWFAELSVDMEKILEIIRVILKLYEQWKNFDERKEMATILSKMPKPKPPPNSEGEQGPNGSQNSSYSQS
B9: ZNF213 (protein, UniProt O14771 1-459, looked up)
Zinc finger protein 213: MAAPLEAQDQAPGEGEGLLIVKVEDSSWEQESAQHEDGRDSEACRQRFRQFCYGDVHGPHEAFSQLWELCCRWLRPELRTKEQILELLVLEQFLTVLPGEIQGWVREQHPGSGEEAVALVEDLQKQPVKAWRQDVPSEEAEPEAAGRGSQATGPPPTVGARRRPSVPQEQHSHSAQPPALLKEGRPGETTDTCFVSGVHGPVALGDIPFYFSREEWGTLDPAQRDLFWDIKRENSRNTTLGFGLKGQSEKSLLQEMVPVVPGQTGSDVTVSWSPEEAEAWESENRPRAALGPVVGARRGRPPTRRRQFRDLAAEKPHSCGQCGKRFRWGSDLARHQRTHTGEKPHKCPECDKSFRSSSDLVRHQGVHTGEKPFSCSECGKSFSRSAYLADHQRIHTGEKPFGCSDCGKSFSLRSYLLDHRRVHTGERPFGCGECDKSFKQRAHLIAHQSLHAKMAQPVG
B10: ZKSCAN3 (protein, UniProt Q9BRR0 1-538, looked up)
Zinc finger protein with KRAB …: MARELSESTALDAQSTEDQMELLVIKVEEEEAGFPSSPDLGSEGSRERFRGFRYPEAAGPREALSRLRELCRQWLQPEMHSKEQILELLVLEQFLTILPGNLQSWVREQHPESGEEVVVLLEYLERQLDEPAPQVSGVDQGQELLCCKMALLTPAPGSQSSQFQLMKALLKHESVGSQPLQDRVLQVPVLAHGGCCREDKVVASRLTPESQGLLKVEDVALTLTPEWTQQDSSQGNLCRDEKQENHGSLVSLGDEKQTKSRDLPPAEELPEKEHGKISCHLREDIAQIPTCAEAGEQEGRLQRKQKNATGGRRHICHECGKSFAQSSGLSKHRRIHTGEKPYECEECGKAFIGSSALVIHQRVHTGEKPYECEECGKAFSHSSDLIKHQRTHTGEKPYECDDCGKTFSQSCSLLEHHRIHTGEKPYQCSMCGKAFRRSSHLLRHQRIHTGDKNVQEPEQGEAWKSRMESQLENVETPMSYKCNECERSFTQNTGLIEHQKIHTGEKPYQCNACGKGFTRISYLVQHQRSHVGKNILSQ
B11: ZNF250 (protein, UniProt P15622 1-560, looked up)
Zinc finger protein 250: MAAARLLPVPAGPQPLSFQAKLTFEDVAVLLSQDEWDRLCPAQRGLYRNVMMETYGNVVSLGLPGSKPDIISQLERGEDPWVLDRKGAKKSQGLWSDYSDNLKYDHTTACTQQDSLSCPWECETKGESQNTDLSPKPLISEQTVILGKTPLGRIDQENNETKQSFCLSPNSVDHREVQVLSQSMPLTPHQAVPSGERPYMCVECGKCFGRSSHLLQHQRIHTGEKPYVCSVCGKAFSQSSVLSKHRRIHTGEKPYECNECGKAFRVSSDLAQHHKIHTGEKPHECLECRKAFTQLSHLIQHQRIHTGERPYVCPLCGKAFNHSTVLRSHQRVHTGEKPHRCNECGKTFSVKRTLLQHQRIHTGEKPYTCSECGKAFSDRSVLIQHHNVHTGEKPYECSECGKTFSHRSTLMNHERIHTEEKPYACYECGKAFVQHSHLIQHQRVHTGEKPYVCGECGHAFSARRSLIQHERIHTGEKPFQCTECGKAFSLKATLIVHLRTHTGEKPYECNSCGKAFSQYSVLIQHQRIHTGEKPYECGECGRAFNQHGHLIQHQKVHRKL

Tested on: HEK293FT cells transfected with TF library
Assay: Screening of TF condensates based on fluorescent puncta
Type: cell-based
Conditions: Figure 1B numerical data; TF library screen, one value per transcriptional factor
Procedure, shortened: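 HEK293FT, PEI transfection of TF library, 60 h; ±glucose 12 h; 4% PFA fix, 0.05% Triton X-100 permeabilization, 5% BSA block; anti-Flag/anti-GAL4 overnight at 4 °C, Alexa 488 secondary 1 h; high-content imaging, 50 fields/well.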

Molecule	Z score of condensed fraction
B1	-0.7537
B2	0.7106
B3	-0.9036
B4	1.201
B5	2.409
B6	2.822
B7	-0.9415
B8	-0.5132
B9	-0.4697
B10	0.9842
B11	-1.178
